Target: FANCI (human, UniProt Q9NVI1 1-1328)
Test: EMSA

FANCI, sequence (Q9NVI1 whole entry): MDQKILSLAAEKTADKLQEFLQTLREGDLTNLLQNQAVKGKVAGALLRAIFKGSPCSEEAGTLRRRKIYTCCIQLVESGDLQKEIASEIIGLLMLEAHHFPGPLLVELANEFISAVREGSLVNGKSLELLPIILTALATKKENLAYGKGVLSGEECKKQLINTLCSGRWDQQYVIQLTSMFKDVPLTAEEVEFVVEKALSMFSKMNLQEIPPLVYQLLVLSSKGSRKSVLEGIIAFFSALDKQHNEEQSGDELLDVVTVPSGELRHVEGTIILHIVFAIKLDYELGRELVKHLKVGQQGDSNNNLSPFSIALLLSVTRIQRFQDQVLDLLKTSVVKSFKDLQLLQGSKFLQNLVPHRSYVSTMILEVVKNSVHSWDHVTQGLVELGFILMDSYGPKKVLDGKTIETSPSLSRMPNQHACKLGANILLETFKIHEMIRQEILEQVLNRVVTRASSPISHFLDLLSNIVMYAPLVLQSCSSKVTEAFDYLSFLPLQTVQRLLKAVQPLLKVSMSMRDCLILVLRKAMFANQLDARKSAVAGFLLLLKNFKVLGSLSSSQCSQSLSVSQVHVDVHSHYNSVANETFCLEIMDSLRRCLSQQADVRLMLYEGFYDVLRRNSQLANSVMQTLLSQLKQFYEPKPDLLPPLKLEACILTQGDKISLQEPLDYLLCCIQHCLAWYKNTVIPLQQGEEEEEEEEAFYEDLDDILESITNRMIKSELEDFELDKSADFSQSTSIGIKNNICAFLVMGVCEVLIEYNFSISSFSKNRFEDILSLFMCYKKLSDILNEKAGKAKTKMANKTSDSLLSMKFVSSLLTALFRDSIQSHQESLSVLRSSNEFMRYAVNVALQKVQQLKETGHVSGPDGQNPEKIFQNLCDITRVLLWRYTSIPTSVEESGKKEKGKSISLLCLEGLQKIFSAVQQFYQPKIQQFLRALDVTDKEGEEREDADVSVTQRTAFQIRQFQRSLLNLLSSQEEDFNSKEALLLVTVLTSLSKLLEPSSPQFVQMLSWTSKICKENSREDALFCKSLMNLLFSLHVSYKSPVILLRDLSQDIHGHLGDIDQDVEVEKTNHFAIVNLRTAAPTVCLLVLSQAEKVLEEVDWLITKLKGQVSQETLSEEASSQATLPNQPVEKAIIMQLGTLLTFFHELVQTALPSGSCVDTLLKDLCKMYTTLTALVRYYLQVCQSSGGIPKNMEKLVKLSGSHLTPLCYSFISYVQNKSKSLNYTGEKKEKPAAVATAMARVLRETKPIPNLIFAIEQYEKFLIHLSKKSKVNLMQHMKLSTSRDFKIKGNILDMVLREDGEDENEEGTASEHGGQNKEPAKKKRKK

B1: Splayed arm (O2+O9) (structured_DNA)
DNA 1: AAAAAAAAAAAAAAAAAAAAAAAAAAAAAAAAAAAAAAAAGTAGAGTCGACGGTGCTGGGATCCAACATGTTTTCAATCTG
DNA 2: CAGATTGAAAACATGTTGGATCCCAGCACCGTCGACTCTACAAAAAAAAAAAAAAAAAAAAAAAAAAAAAAAAAAAAAAAA
Does B1 bind?
Result: binds

Source: PMC4027212
